{
  "source": "patent US20230293647A1",
  "about": "(AUTOLUS, published 2023)",
  "binders": {"B1": {"name": "74650 (Fc fusion)", "scFv-Fc": "QVQLQQSGAEVKKPGSSVKVSCKASGGTFSSYTISWVRQAPGQGLEWMGGITPILGIANYAQKFQGRVTITTDESTSTAYMELSSLRSEDTAVYYCARDTVMGGMDVWGQGTTVTVSSSYELTQPPSVSVAPGKTARITCGGNNIGSKSVHWYQQKPGQAPVLVVYDDSDRPSGIPERFSGSNSGNTATLTISRVEAGDEADYYCQVWDSSSDYVFGTGTKVTVL"}, "B2": {"name": "74667 (Fc fusion)", "scFv-Fc": "QVQLVQSGAEVKKPGESLKISCKGSGYSFANHWIAWVRQMPGKGLEWMGIFNPDNSDTTYSPSFQGQVTFSADKSISIAYLHWSSLKASDTAIYYCARLALSDGWLHDFWGQGTLVTVSSEIVMTQSPLSLPVTLGQPASISCKSSQSLVDTNGNTYLIWFHQRPGQSPRRLIYQVSKRDSGVPDRFSGSGSGTDFTLKISRVEAEDVGVYFCMQGTYRPPTLGQGTKVEIK"}, "B3": {"name": "74648 (Fc fusion)", "scFv-Fc": "EVQLVQSGGGVVQPGKSLRLSCAASGFAFSSYAMHWVRQAPGKGLEWVAVISYDGSNKYYADSVKGRFTISRDNSKNTLYLQMNSLRAEDTAVYYCARDRSYYLDYWGQGTLVTVSSETTLTQSPATLSLSPGERATLSCRASQSVRSNLAWYQQKPGQAPRPLIYDASTRATGIPDRFSGSGSGTDFTLTISRLEPEDFAVYYCQQRSNWPPTFGQGTKVEVK"}, "B4": {"name": "74649 (Fc fusion)", "scFv-Fc": "QAQLVESGGALVQPGRSLRLSCAASGFTFRNYAMHWVRQAPATGLQWLAVITSDGRNKFYADSVKGRFTISREDSKNTLYLQMDSLRGEDTAVYYCVTQRDNSRDYFPHYFHDMDVWGQGTTVAVSSDVVLTQSPLSLPVTLGQPASISCRSSQSLVYSDGDTYLNWFQQRPGQSPRRLIYQVSNRDSGVPDRFSGSGSGTDFTLKISRVEAEDVGVYYCMQGSHWPPTFGQGTKVEIK"}, "B5": {"name": "74653 (Fc fusion)", "scFv-Fc": "QVQLQQPGAELVKPGASVKVSCKASGYTFTNYWIHWVKQRPGQGLEWIGEINPGNGRTNYNGNFMNKATLTVDKSSNTAYMQLSSLTSEDSAVYHCARLDYWGQGTTLTVSSELVMTQSPASLSVATGKKVTIRCISSTDIDDDMNWYQQKAGKPPKLLISEGNIFSPGVPSRFSSSGNGTDFVFTVENTLSEDVADNYCLQSDNMPFTFGSGTKLGIK"}, "B6": {"name": "74651 (Fc fusion)", "scFv-Fc": "EVQLEESGTVLARPGASVKMSCKASGYTFTTYRMHWIKQRPGQGLEWIGAIYPGNSDTTYNQKFKDKAKLTAVTSTSSAYMELSSLTNEDSAVYFCTREGIPQLLRTLDYWGQGTSVTVSSDILMTQSPSSLSASLGERVSLTCRASQEISGYLSWLQEKPDGTIKRLIYAASTLDSGVPKRFSGSRSGSDYSLTISSLESEDFADYYCLQYVSYPWTFGGGTKLEIK"}, "B7": {"name": "74652 (Fc fusion)", "scFv-Fc": "QVQLLESGAELVKPGASVKVSCKASGYTFTSYWIHWVKQRPGQGLEWIGEINPSNGRTNYNGNFESKATLTVDKSSNTAYMHLSSLTYEDSAVYHCTRLDYWGQGTTLTVSSELVMTQSPASLSVITGKKVTIRCISNTDIDDDLNWSQLKAGEPPKLLISEGNIFSPGVPSRFSSSGNGTDFVFTIENTLSEDVANNYCFQSDNMPFTFGSGTKLEIK"}, "B8": {"name": "dAb clone 9 fused to Fc (Fc fusion)", "chain": "QVQLQESGGGLVQAGDSLRLSCAASGRTSDTMTIGWFRQAPGKEREFVASINWSGSTTYYADSVNERFTISRDDAKNTVYLQMNSLKPEDTAVYYCAAKRGVWTIKSAAADFASWGQGTQVTVSS", "notes": "also called clone C9 fused to Fc"}, "B9": {"name": "74662 (Fc fusion)", "scFv-Fc": "EVQLVESGGGLVQPGGSLRLSCAASGFTFSGYPMHWVRQAPGKGLEWVAVISYDGSNKYYADSVKGRFTISRDNSKNTLYLQMNSLRAEDTAVYYCAKDGSPRTPSFDYWGQGTLVTVLEDIQMTQSPHSLSASVGDRVTITCRASQGISNYLAWYQQKPGKVPKLLIYAASTLQSGVPSRFSGSGSGTDFTLTISSLQPEDVGVYYCQQRFRTPVTFGQGTKLEIK"}, "B10": {"name": "74655 (Fc fusion)", "scFv-Fc": "QVQLVQSGAEVKKPGASVKVSCKASGYTFTTYGISWVRQAPGQGLEWMGWISAYNGNTNYAQKLQGRVTMTTDTSTSTAYMELRSLRSDDTAVYYCARDDLSDYGEWLGPDYWGQGTLVTVSSQPGLTQPPSASGTPGQRVTISCSGSRSNIGGNTVNWYQHVPGTAPKLLIYSNNQRPSGVPDRFSGSKSGTSASLAISGLRSEDEAEYYCATWEDSLSGYVFGPGTKVTVL"}},
  "key": {"[1]": {"target": "T1, SARS-CoV-2 Spike protein, S1 subunit (recombinant) (SARS-CoV-2, UniProt P0DTC2 16-681)", "assay": "ELISA, scFv-Fc supernatant on coated SARS-CoV-2 S1; cut-off 3x background"}, "[2]": {"target": "SARS-CoV S1 spike protein domain (recombinant) (SARS-CoV, UniProt P59594 14-667)", "assay": "ELISA on coated SARS-CoV S1"}, "[3]": {"target": "T1, SARS-CoV-2 Spike protein, S1 subunit …", "assay": "ELISA, coated SARS-CoV-2 S1; x axis Log Dilution factor, no concentration"}},
  "data": [
    {"binder": "B1", "values": [
      {"measurement": "binding result", "setting": "[1]", "result": "no binding (tested: approximately 10 µg/ml)"}
    ]},
    {"binder": "B2", "values": [
      {"measurement": "binding result", "setting": "[1]", "result": "no binding (tested: approximately 10 µg/ml)"}
    ]},
    {"binder": "B3", "values": [
      {"measurement": "binding result", "setting": "[1]", "result": "no binding (tested: approximately 10 µg/ml)"}
    ]},
    {"binder": "B4", "values": [
      {"measurement": "binding result", "setting": "[1]", "result": "no binding (tested: approximately 10 µg/ml)"}
    ]},
    {"binder": "B5", "values": [
      {"measurement": "binding result", "setting": "[1]", "result": "no binding (tested: approximately 10 µg/ml)"}
    ]},
    {"binder": "B6", "values": [
      {"measurement": "binding result", "setting": "[1]", "result": "no binding (tested: approximately 10 µg/ml)"}
    ]},
    {"binder": "B7", "values": [
      {"measurement": "binding result", "setting": "[1]", "result": "no binding (tested: approximately 10 µg/ml)"}
    ]},
    {"binder": "B8", "values": [
      {"measurement": "binding result", "setting": "[2]", "result": "no binding"},
      {"measurement": "binding result", "setting": "[3]", "result": "binds"}
    ]},
    {"binder": "B9", "values": [
      {"measurement": "binding result", "setting": "[1]", "result": "no binding (tested: approximately 10 µg/ml)"}
    ]},
    {"binder": "B10", "values": [
      {"measurement": "binding result", "setting": "[1]", "result": "no binding (tested: approximately 10 µg/ml)"}
    ]}
  ]
}
